The target in the experiment is T1, CD20 (human, UniProt P11836 1-297).
T1 construct: whole, on cells; also called CD20-positive Ramos cell line; Ramos cells
T1 sequence (looked up): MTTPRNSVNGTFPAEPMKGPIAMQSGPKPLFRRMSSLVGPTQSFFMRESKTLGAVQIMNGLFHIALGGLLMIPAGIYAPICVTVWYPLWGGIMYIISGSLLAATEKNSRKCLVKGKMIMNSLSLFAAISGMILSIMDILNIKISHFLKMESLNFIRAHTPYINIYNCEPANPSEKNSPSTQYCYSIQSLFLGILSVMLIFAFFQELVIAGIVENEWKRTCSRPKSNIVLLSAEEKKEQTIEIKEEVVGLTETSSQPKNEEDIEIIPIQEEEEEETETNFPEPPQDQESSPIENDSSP
As to the kind of experiment: saturation binding of radiolabeled antibody to Ramos cells (10^7 cells), nonlinear regression.

The text below walks through data of US20030103948A1 (NEORX, published 2003).

By Kd is commonly meant the concentration at which binding is half-saturated. Lower therefore signals a tighter complex.

Protocol: Avidity was determined using saturation binding experiments that measure specific binding of radiolabeled mAb or fusion protein (0.025-50 ng/ml) at equilibrium in the presence of excess antigen (10⁷ cells). Nonspecific binding was determined in the presence of excess cold mAb or fusion protein (50 μg/ml). […] The equilibrium dissociation constant (Kd) was calculated from nonlinear regression analysis of nM bound vs. nM radioligand using immunoreactivity-adjusted antibody concentrations.
Kd and Kₐ were calculated using nonlinear regression analysis of nM bound vs. nM radioligand.

B1: B9E9 mAb (antibody, V domains shown)
VH: QVQLVQSGAELVKPGASVKMSCKASGYTFTSYNMHWVKQTPGQGLEWIGAIYPGNGDTSYNQKFKGKATLTADKSSSTAYMQLSSLTSEDSAVYYCARAQLRPNYWYFDVWGAGTTVTVSS
VL: DIVLSQSPAILSASPGEKVTMTCRASSSVSYMHWYQQKPGSSPKPWIYATSNLASGVPARFSGSGSGTSYSLTISRVEAEDAATYYCQQWISNPPTFGAGTKLELK
modifications: Used unlabelled, fluorescein-labelled (FACS tracer) and radiolabelled (avidity assay).
notes: also called divalent B9E9 antibody; murine anti-CD20 antibody B9E9
Molecule B1 registered a Ka of 1.02e+08 M⁻¹ and a Kd of 9.75 nM.
